Test results published in patent US20210101954A1 (EUREKA THERAPEUTICS, published 2021).

Target: T1, CD19 (human, UniProt P15391 20-556)
T1 construct: whole, on cells; also called CD19 on NALM6, Raji, K562-CD19 and K562-CD19/CD22 cells
T1 sequence (looked up): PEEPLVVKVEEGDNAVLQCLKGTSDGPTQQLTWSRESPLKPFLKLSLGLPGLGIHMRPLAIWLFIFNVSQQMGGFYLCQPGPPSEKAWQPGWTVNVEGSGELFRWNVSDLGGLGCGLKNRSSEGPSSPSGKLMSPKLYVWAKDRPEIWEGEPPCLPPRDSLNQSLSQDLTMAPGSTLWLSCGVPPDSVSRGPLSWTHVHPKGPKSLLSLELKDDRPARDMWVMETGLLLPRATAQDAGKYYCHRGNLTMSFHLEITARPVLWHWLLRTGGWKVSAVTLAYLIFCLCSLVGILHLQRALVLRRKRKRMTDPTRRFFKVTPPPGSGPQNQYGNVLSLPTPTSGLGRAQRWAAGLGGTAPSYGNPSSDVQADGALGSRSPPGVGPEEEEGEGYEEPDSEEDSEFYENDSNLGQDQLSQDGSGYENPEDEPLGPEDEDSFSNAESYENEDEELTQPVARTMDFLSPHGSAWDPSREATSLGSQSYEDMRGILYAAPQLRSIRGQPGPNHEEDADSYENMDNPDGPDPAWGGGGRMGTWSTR
Assay: told from antigen-specific IFN-γ release of transduced T cells on CD19+ and/or CD22+ cell lines
Text: Primary T cells were mock-transduced or transduced with a lentiviral vector encoding the anti-CD19 anti-CD22 caTCR-7-2a construct. The transduced T cells were mixed with K562 (CD19 CD22 double negative), K562-CD22 (K562 transduced with CD22), K562-CD19 (K562 transduced with CD19), Raji (which expresses both CD19 and CD22), or Raji CD19 K/O (Raji with CD19 knocked out) cells at an effector-to-target ratio of 2.5:1. T-cells secrete IFN-γ when activated by TCR engagement with target ligand. The cytokine release levels of IFN-γ were measured and used as an indicator of the receptor's signaling potential (the higher levels, the higher the receptor's signaling potential and cytotoxic T cell activity). Cytokine concentrations were measured after 16 hours of co-culture using the Magpix multiplex system (Luminex) with the Bio-plex Pro Human Cytokine 8-plex Assay (BioRad).
T cells expressing the anti-CD19 anti-CD22 caTCR-7-2a construct specifically activated IFN-γ secretion when incubated with K562 expressing either CD19 or CD22 antigens. […] In vitro killing

B1: anti-CD19 anti-CD22 caTCR-7-2a (other)
chain 1: DIQLTQSPSSLSTSVGDRVTITCQASHDIRNYLNWYQQKPGKAPNLLIYAASNLQTGVPSRFSGRGSGTDFTLTISSLQPEDIATYYCQQYDGLPLTFGQGTRLEIKRGGGGSEVQLVQSGAEVKKPGESLKISCKGSGYSFTSYWIGWVRQMPGKGLEWMGIIYPGDSDTRYSPSFQGQVTISADKSISTAYLQWSSLKASDTAMYYCARQVWGWQGGMYPRSNWWYNLDSWGQGTLVTVSSASTKGPSVFPLAPSSKSTSGGTAALGCLVKDYFPEPVTVSWNSGALTSGVHTFPAVLQSSGLYSLSSVVTVPSSSLGTQTYICNVNHKPSNTKVDKRVEPKSCEVKTDSTDHVKPKETENTKQPSKSCHKPKAIVHTEKVNMMSLTVLGLRMLFAKTVAVNFLLTAKLFFL
chain 2: QVQLVESGGGLVQPGGSLRLSCAASGFTFSNYAMSWVRQAPGKGLEWVSSISGSGGSTYYADSVKGRFTISRDTSKNTLYLQMNSLRAEDTAVYYCARYGSAAWMDSWGQGTLVTVSSGGGGSLPVLTQPPSVSVAPGKTARITCGGNNIGSKSVHWYQQKPGQAPVLVVYDDSDRPSGIPERFSGSNSGNTATLTISRVEAGDEADYYCQVWDSSSDYVVFGGGTKLTVLGQPKANPTVTLFPPSSEELQANKATLVCLISDFYPGAVTVAWKADGSPVKAGVETTKPSKQSNNKYAASSYLSLTPEQWKSHRSYSCQVTHEGSTVEKTVAPTECSPIKTDVITMDPKDNCSKDANDTLLLQLTNTSAYYMYLLLLLKSVVYFAIITCCLLRRTAFCCNGEKS
notes: Bispecific chimeric antibody-TCR construct expressed on transduced primary T cells
**Q.** Does B1 bind?
**A.** binds
